The text below walks through data of US20110257371A1 (Teva, published 2011).

Where no end group is shown, it is not given here. The star is where a group is joined. Biotin = O=C1N[C@H]2[C@H](CS[C@H]2CCCCC(=O)*)N1

Assay [1] addresses T1, F37A (ends and bridges not checked).
T1 peptide: Biotin-NNFVPTNVGSKAA
Description: Biacore alanine scan, 25 °C, N-biotinylated fragment on SA chip, G1 Fab titrated; against the wild-type 25-37 fragment. On the procedure:
(§1) Interaction analysis was conducted at 25° C. on a Biacore 3000™ system equipped with streptavidin-coated (SA) sensor chips (Biacore AB, Uppsala, Sweden) using a standard Biacore running buffer (HBS-P). […] Each amino acid between position 27-37 was then mutated individually to alanine and expressed the fold loss in affinity compared to the wild-type fragment. […] Fab fragments were titrated over the chip using 1 μM as the top concentration of a two-fold dilution series. Association and dissociation phases were monitored at 100 μl/min for 1 minute and 5 minutes respectively. Surfaces were regenerated with a mixture of 35% ethanol+25mM NaOH+0.5M NaCl.
On the technique in general: Surface plasmon resonance follows binding to a sensor surface in real time, without labels.

Assay [2] concerns the target T2, G33A (ends and bridges not checked).
T2 peptide: Biotin-NNFVPTNVASKAF
The description is as above. As to the method:
as §1

The target of assay [3] is T3, S34A.
T3 sequence (peptide, N-terminal biotin (p-0192)): NNFVPTNVGAKAF
The description is as above.

Assay [4] deals with T4, K35A.
T4 sequence (peptide, N-terminal biotin (p-0192)): NNFVPTNVGSAAF
Described as above.

Assay [5] concerns the target T5, V32A.
T5 sequence (peptide, N-terminal biotin (p-0192)): NNFVPTNAGSKAF
The assay is described as above.

In assay [6] the target is T6, human α-CGRP (human, not fully specified; C-terminal amide (CONH2) as printed; N-biotinylated in the Biacore assays).
T6 construct: Full-length 37-residue peptide; also called α-Hu; α-human
T6 peptide: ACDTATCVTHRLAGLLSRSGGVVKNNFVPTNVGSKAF
Description: Biacore, N-biotin-CGRP on chip, 25 C.

In assay [7] the target is T7, rat α-CGRP (rat, not fully specified; C-terminal amide (CONH2) as printed; N-biotinylated in the Biacore assays).
T7 construct: also called α-Rat; α-rat
T7 peptide: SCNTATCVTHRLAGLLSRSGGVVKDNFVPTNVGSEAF
Description: Biacore, N-biotin-CGRP on chip, 25 C.

In assay [8] the target is T8, rat β-CGRP (rat, not fully specified; C-terminal amide (CONH2) as printed; N-biotin on chip).
T8 construct: also called β-rat
T8 peptide: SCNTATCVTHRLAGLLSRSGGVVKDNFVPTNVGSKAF
Briefly: Biacore, N-biotin-CGRP on chip, 37 C.

Assay [9] has as its target T6, human α-CGRP. Briefly: Biacore, N-biotin-CGRP on chip, 37 C.
Assay [10] has as its target T7, rat α-CGRP. Description: Biacore, N-biotin-CGRP on chip, 37 C.
In assay [11] the target is T9, human β-CGRP (human, not fully specified; C-terminal amide (CONH2) as printed; N-biotin on chip).
T9 construct: also called β-human
T9 peptide: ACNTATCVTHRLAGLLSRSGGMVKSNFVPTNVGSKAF
Briefly: Biacore, N-biotin-CGRP on chip, 37 C.

Assay [12] deals with T6, human α-CGRP. Briefly: Biacore, ratio of KD at 25 C, reference rat α-CGRP.

B1: Fab fragment of antibody G1 (Fab, V domains shown)
VH: EVQLVESGGGLVQPGGSLRLSCAASGFTFSNYWISWVRQAPGKGLEWVAEIRSESDASATHYAEAVKGRFTISRDNAKNSLYLQMNSLRAEDTAVYYCLAYFDYGLAIQNYWGQGTLVTVSS
VL: EIVLTQSPATLSLSPGERATLSCKASKRVTTYVSWYQQKPGQAPRLLIYGASNRYLGIPARFSGSGSGTDFTLTISSLEPEDFAVYYCSQSYNYPYTFGQGTKLEIK
notes: also called Purified Fab fragments of antibody G1
With B1, the “Fold loss in affinity” value was 339 fold in [1]; 504 fold in assay [2]; 10.9 fold in [3]; 8.1 fold in assay [4]; 6.1 fold in assay [5].

B2: antibody G1 (antibody, human IgG2, kappa, V domains shown)
VH: EVQLVESGGGLVQPGGSLRLSCAASGFTFSNYWISWVRQAPGKGLEWVAEIRSESDASATHYAEAVKGRFTISRDNAKNSLYLQMNSLRAEDTAVYYCLAYFDYGLAIQNYWGQGTLVTVSS
VL: EIVLTQSPATLSLSPGERATLSCKASKRVTTYVSWYQQKPGQAPRLLIYGASNRYLGIPARFSGSGSGTDFTLTISSLEPEDFAVYYCSQSYNYPYTFGQGTKLEIKR
notes: Humanized IgG2 delta-a monoclonal derived from muMAb7E9; heavy chain entry includes the modified IgG2 constant region; also called anti-CGRP antibody G1
B2: the “T1/2” value was 24.7 h in assay [6]; 3.12 h in assay [7]; 2.45 h in [8]; 5.3 h in assay [9]; 0.48 h in assay [10]; 2.76 h in [11]. For the same molecule, the “fold more potent than for rat α-CGRP” value in [12] was 40 fold.
